Experiments:
[1] = target: T1, full length human KLRG1 expressed on CHOK1 cells (CHOK1-hKLRG1) (human, UniProt Q96E93 1-195); test: FACS competition on CHOK1-hKLRG1 cells; inhibition of E-cadherin-ECD-FC-biotin (0.3 uM) binding (Example 7)
T1 construct: whole, on cells; also called killer cell lectin-like receptor G1
T1 sequence (looked up): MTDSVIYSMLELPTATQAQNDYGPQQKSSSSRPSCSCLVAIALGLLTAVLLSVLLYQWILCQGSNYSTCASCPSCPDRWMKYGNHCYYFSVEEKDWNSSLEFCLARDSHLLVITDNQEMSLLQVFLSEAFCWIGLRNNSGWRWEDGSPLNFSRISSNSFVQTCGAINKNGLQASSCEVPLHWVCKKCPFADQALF
Description: (§1) CHOK1-hKLRG1 expressing cells were cultured and incubated with varying concentrations of PA015, HG1N01, HG1N02 or control human IgG1. Recombinant human E-cadherin-ECD-FC-biotin at 0.3 μM was then added and incubated. Cells were centrifuged, the supernatant discarded, and washed with an incubation buffer (HBSS+2% FBS+10 mM Ca2+). Cells were resuspended and incubated with Streptavidin-Alexa 488, washed, resuspended, and underwent FACS study.

[2] = target: T1, full length human KLRG1 expressed on …; test: FACS on CHOK1-hKLRG1 cells, anti-human IgG-Alexa 488 detection
Description: Binding of anti-KLRG1 monoclonal antibodies to cell expressed human and cynomolgus-KLRG1 is carried out by FACS. Chinese hamster ovary (CHO) cells are stably transfected to express full length human KLRG1 (CHOK1-hKLRG1)). CHOK1-hKLRG1 expressing cells were cultured and incubated with varying concentrations of either PA015 or control human IgG1. Cells were then centrifuged, the supernatant discarded, and washed with an incubation buffer (HBSS+2% FBS+10 mM Ca2+). Cells were resuspended and incubated with anti-human IgG-Alexa 488, washed, resuspended, and underwent FACS study.

[3] = target: T1, full length human KLRG1 expressed on …; test: FACS competition on CHOK1-hKLRG1 cells; inhibition of E-cadherin-ECD-FC-biotin (0.3 uM) binding
Description: The ability of monoclonal antibodies to inhibit E-cadherin/KLRG1 binding is measured by FACS.
as §1, with “concentrations of either PA015 or control” for “concentrations of PA015, HG1N01, HG1N02 or control”, “Cells were then centrifuged, the” for “Cells were centrifuged, the”

B1: PA015 (antibody, human IgG1, kappa, V domains shown)
VH: QVTLRESGPALVKPTQTLTLTCTVSGFSLSTFGMGVGWIRQPPGKALEWLAHIWWDDDKWYELALKSRLTISKDTSKNQVVLTITNMDPVDTATYYCARVIYYGSRSAYYSMDYWGQGTTVTVSS
VL: DVVMTQTPLSLSVTPGQPASISCKSSQSIVHSNAHTYLEWYLQKPGQSPQLLIYKVSNRFSGVPDRFSGSGSGTDFTLKISRVEAEDVGVYYCFQGSHVPVTFGQGTKLEIKR
notes: also called PA015 antibody; anti-KLRG1 antibody PA015
IC50 [1]: 5.3 nM | EC50 [2]: 1.33 nM | IC50 [3]: 8.05 nM
